Assay results: article PMC10304631 (Pharmaceutics, 2023)

How the values were obtained:
Caco-2 cells [1] = test: PEN-mediated uptake of TAMRA-insulin by flow cytometry; type: cell-based, human; conditions: 5 µM TAMRA-insulin alone or with 20 µM PEN, 1 h, 37 °C, mean ± SD, N = 2, n = 3
Method: The controls were incubated with a buffer without CPP or insulin. The cells were kept on a shaking table (37 °C, 50 rpm) for 1 h. Hereafter, the test solutions were removed, and the cells were washed twice with cold phosphate-buffered saline (4 °C) and trypsinized for 10–15 min. Trypsinization was terminated by the addition of excess cold hHBSS (4 °C) containing 10% (v/v) FBS (hHBSS/FBS). The cells were then collected and centrifuged at 4000 rpm (1076× g, 4 °C). The supernatant was removed, and the cells were washed once with hHBSS/FBS and centrifuged again at the same conditions before suspension in hHBSS/FBS containing 0.3% (v/v) DRAQ7 as a marker of the plasma membrane’s integrity. To quench extracellular plasma membrane-associated fluorescence, a parallel experiment was performed using the same test solutions, with the addition of trypan blue (TB) at a final concentration of 0.1% (v/v) just prior to analysis.

Caco-2 cells [2] = test: PEN-mediated uptake of TAMRA-insulin by confocal microscopy (CLSM); type: cell-based, human; conditions: undifferentiated Caco-2 cells; 5 µM TAMRA-insulin alone, pH 7.4, 1 h
[3] = predicted log P; ref Drugbank.com and pubchem.ncbi.nlm.nih.gov (accessed on 3 January 2023); cited from earlier work

Compound	MFI (A.N.) of TAMRA-insulin (Caco-2 cells [1]; pH 6.5, with Trypan Blue (0.1% v/v))	MFI (A.N.) of TAMRA-insulin (Caco-2 cells [1]; pH 7.4, with Trypan Blue (0.1% v/v))	MFI (A.N.) of TAMRA-insulin (Caco-2 cells [1]; pH 7.4, without Trypan Blue)	Uptake of TAMRA-insulin (CLSM) (Caco-2 cells [2])	Log P [3]
TAMRA-Insulin: insulin labeled with TAMRA (5/6-carboxy-tetramethyl-rhodamine succinimidyl ester)	49.6 ± 1.9 A.N.	40.8 ± 2.6 A.N.	41.2 ± 2.9 A.N.	uptake was absent	–
Vancomycin	–	–	–	–	−4.4
OC[C@@H](O)[C@@H](O)[C@H](O)[C@H](O)CO [Mannitol]	–	–	–	–	−3.7
